# In the nanobody polyreactivity screen of Harvey et al. (2022):
# Test: yeast display, Sf9 membrane polyspecificity reagent, FACS + sequencing; frameworks hold sequencing errors
# Method in brief: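 Nanobodies from a synthetic yeast display library (Saccharomyces cerevisiae BJ5465), induced 36–48 hours with galactose, were stained 1 hour at 4 °C with 10% biotinylated, detergent-solubilized Sf9 membrane reagent, enriched on streptavidin microbeads, then FACS-sorted. Anti-HA (expression) and streptavidin (reagent binding) fluorescence set low and high (top ~1%) gates. Polyreactivity labels come from the gate of origin. Genes were colony-PCR amplified, MiSeq 2 × 250 sequenced and filtered by CDR length.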
row,Sequence,polyreactivity (PSR sort gate)
1,QVQLVESGGGLVQAGGSLRLSCAASGFTFGPYAMGWYRQAPGKERELVAASSQSGGRTSYADSVKGRFTISRDNAKNTVYLPMNSLKPEDTAVYYCAKRAYGYRSIYRMDYWGQGTQVTVSS,high polyreactivity
2,QVQLVESGGGLVQAGGSLRLSCAASGFTFGRNAMGWYRQAPGKERELVASIDWSGGSTYYADSVKGRFTISRDNAKNTVYLQMNSLIPEDTAVDYCAVGPNSVGNRSYGFDYWGQGTQVTVSS,low polyreactivity
3,QVQLVESGGGLVQAGGSLRLSCAASGFTFGRNAMGWYRQAPGTERELVARITTGGSTNYADSVKGRFTISRDNAKYTVYLQLNSLKPEDTAVYYCAATYVSLALFWTYGYWGQGTQVTVSS,low polyreactivity
4,QVQLVESGGGLVQAGGSLRLSCAASGFTFGRYAMGWYRQAPGKERELVAAITYTDGSTYYADSVKGRFTISRDNAKNTVYLQMNSLKPEDTAVYYCAATTLSFEGGKYWSKYDYWGQGTQVTVSS,low polyreactivity
5,QVQLVESGGGLVQAGGSLRLSCAASGFTFGRYAMGWYRQAPGKVRELVAGITSGGSTYYADSVKGRFTISRDNAKKTVYLQMNSLKPEDTAVYYGAKASAYGLANDYDYWGQGTQVTVSS,low polyreactivity
6,QVQLVESGGGLVQAGGSLRLSCAASGFTFGRYAMGWYRQATGKERELVAAITWSGGSTHYADSVKGRFTISRDNAKNTVYLQMNSLKPEDTAVYYCAVRVIYWSGSQVSVEYYYWGQGTQVTVSS,low polyreactivity
7,QVQLVESGGGLVQAGGSLRLSCAASGFTFGRYDMGWYRQAPGKERELVAAISSGGNTYYADSVKGRFTISRDNAKNTVYLQMNSLKPEDTAVNYCNARTSYYSRFDYWGQGTQVTVSS,high polyreactivity
8,QVQLVESGGGLVQAGGSLRLSCAASGFTFGSNAMGWYRQAPGKERELVAAINYSGVRTYYADSVKGRFTISRDNAKNTVYLQMNSLKPEDTAVYYCAKKRSKRISFDYWGQGTQVTVSS,high polyreactivity
9,QVQLVESGGGLVQAGGSLRLSCAASGFTFGSNDMGWYRQAPGKERELVAAINYSGVRTYYADSVKGRFTISRDNAKNTVYLQMNSLKPEDTAVYYCAKKRSKPISFDYWVQGTQVTVSS,high polyreactivity
10,QVQLVESGGGLVQAGGSLRLSCAASGFTFGSNVMGWYRQAPGKERELVATIRRGGSTNYADSVKGRFTISRDNAKNTVYLQMNSLKPEDTAVYYCATGYAVYLSRRDYWGQGTQVTVSS,high polyreactivity
11,QVQLVESGGGLVQAGGSLRLSCAASGFTFGSYAMGWYRQAPGKERELVAAISRGGTTYYADSVKGRFTVSRDNAKNTVYLQMNSLKPEDTAVYYCATALIVRGPSRYEYWGQGTQVTVSS,high polyreactivity
12,QVQLVESGGGLVQAGGSLRLSCAASGFTFGSYAMGWYRQAPGTERELVADISRRGGRTYYADSVKGRFTISRDNAKNTVYLQMNSLKPEDTAVYYCNAVSYVYFYSSSYDYWGQGTQVTVSS,high polyreactivity
13,QVQLVESGGGLVQAGGSLRLSCAASGFTFGTNAMGWDRQAPGKERELVAAISGSGGSTYYADSVKGRFTISRDNAMNTVYLQMNSLKPEDTAVYYCNKGRPRKVYSEGFGYWGQGTQVTVSS,high polyreactivity
14,QVQLVESGGGLVQAGGSLRLSCAASGFTFGVYAMGWYRQAPGKERELVAAISTTVGSTYYADSVKGRFTISRDNAKNTVYLQMNSLKPEDSAVYYCAAEYTGYINYYIYEYWGQGTQVTVSS,low polyreactivity
15,QVQLVESGGGLVQAGGSLRLSCAASGFTFGVYTMGWYRQAPGKERELVAAITSGGSTHYADSVKGRFTISRDNAKNTVYLQMNSLKPEDTAVYYCAARVRPRPQRIYGYWGQGTQVTVSS,high polyreactivity
16,QVQLVESGGGLVQAGGSLRLSCAASGFTFGWYAMGWYRQAPGKDWEFVAAISRSGGSTYYADSVKGRFTISRDNAKNTVYLQMNSLKPEDTAVYYCAAYIIGDTHAEYDYWGQGTQVTVSS,high polyreactivity
17,QVQLVESGGGLVQAGGSLRLSCAASGFTFGWYAMGWYRQAPGKERELVAAIDESGGTTYYADSVKGRFTISRDNAKNTVYLQMNSLKPEDTAVYYCAADKKTPYEDDYWGQGTQVTVSS,low polyreactivity
18,QVQLVESGGGLVQAGGSLRLSCAASGFTFGWYDMGWYRKATGKERELVASISWSGSSTYYADSVKGRFTISRDNAKNTVYLQMNSLKPEDTAVYYCATPYWRRYDYWGQGTQVTVSS,high polyreactivity
19,QVQLVESGGGLVQAGGSLRLSCAASGFTFGYNAMGWYRQAPGKEREFVAAITKSGDSTYYADSVKGRFTISRDNAKNSVYLQMNSLKPEDTAVYYCAAQYRQRRHDYWGQGTQVTVSS,high polyreactivity
20,QVQLVESGGGLVQAGGSLRLSCAASGFTFGYYAMGCYRQAPGKERELVAAISWSGGSTYYADSVKGRFTISRDNAKNTVYLQMNSLKPEDSAVYYCAAQSYLGRTWLDYWGQGTQVTVSS,high polyreactivity
21,QVQLVESGGGLVQAGGSLRLSCAASGFTFGYYAMGWYRQAPGKERELVAAINYSGGSTYYADSVKGRFTISRDNEKNTVYLQMNSLKPEDTAVYYCAAAVLRTYVPDLYDYWGQGTQVTVSS,high polyreactivity
22,QVQLVESGGGLVQAGGSLRLSCAASGFTFGYYAMGWYRQAPGKERELVARISDGGSTNYADSVKGRFTISRDNAKNTVYLQMNSLKQEDTAVYYCAADDTRGREEYDYWGQGTQVTVSS,high polyreactivity

row,Sequence,polyreactivity (PSR sort gate)
1,QVQLVESGGGLVQAGGSLRLSCAASGFTFGYYAMGWYRQAPGKERELVASISSRGGSTNYADSVKGRFTISRDNAKNTVYLQMNSLKPEDTAVYYCNADYYYPLRSNKYYYWGQGTQVTVSS,high polyreactivity
2,QVQLVESGGGLVQAGGSLRLSCAASGFTFGYYAMGWYRQAPGKERELVATIDRGGGTSYADSVKGRFTISRDNAKNTVYLQMNSLKPEDTAVYYCNRAGYGAKARRYRSYWGQGTQVTVSS,high polyreactivity
3,QVQLVESGGGLVQAGGSLRLSCAASGFTFGYYVMGWYRQEPGKERELVAAITVSGASTYYADSVKGRFTISRDNAKNTVYLQMNSLKPEDTAVYYCAKRGYFPALRQSYYYWGQGTQVTVSS,high polyreactivity
4,QVQLVESGGGLVQAGGSLRLSCAASGFTFHDYAMGWYRPAPGKERELVAAITKTGGRTYYADSVKGRFTISRDNAKNTVYLQMNSLKPEVTAVYYCAAKSYWGQGTQVTVSS,high polyreactivity
5,QVQLVESGGGLVQAGGSLRLSCAASGFTFHNNVMGWYRQAPGKERELVATISKSGGSTYYADYVKGRFTISRDNAKNTVYLQMKSLKPEDTAVYYCARRYRDYGRYGYWGQGTQVTVSS,high polyreactivity
6,QVQLVESGGGLVQAGGSLRLSCAASGFTFHNYAMGLYRQSPGKEREFVAAITRNTASTYYADSVKGRFTISRDNAKITVYLQLNSLKPEDTAVYYCAATDKKHRNAYDSWGQVTQVTVSS,low polyreactivity
7,QVQLVESGGGLVQAGGSLRLSCAASGFTFHNYAMGWYRQAPGKEREFVAAITRNTASTYYADSVKGRFTISRDNAKNTVYLQMNSLKPEDTAVYYCAATDKKHRTAYDSWGQGTQVTVSS,low polyreactivity
8,QVQLVESGGGLVQAGGSLRLSCAASGFTFHPNAMGWYRPAPGKERELVAAISTRGGSTAYADSVKGRFTISRDNAKNTVYLLMNSLKPEDTAVYYCAARTSSTKYYYWGQGTQVTVSS,high polyreactivity
9,QVQLVESGGGLVQAGGSLRLSCAASGFTFHRYDMVWYRQAPGKERELVAGITRRSGSTFYADSVKGRFTISRDNAKNTVYLQMNSLKPEDTAVYYCAATVPGMHWIYDYWGQGTQVTVSS,high polyreactivity
10,QVQLVESGGGLVQAGGSLRLSCAASGFTFHSYAMGLYRQAPGKERELVAAISPGATTYYADSVKGRFTISRENANNTVYFKLNSLKPEDTAVYYFAASYQRVRDATVYTIYDYWGQGTQVTVSS,high polyreactivity
11,QVQLVESGGGLVQAGGSLRLSCAASGFTFHYYAMGWYRQAPGKERELVAAISSSGGNTYYADSVKGRFTISRDNAKNTVYLQMNSLKPEDTEVYYCNAYSFFLGGYDYWGQGTQVTVSS,high polyreactivity
12,QVQLVESGGGLVQAGGSLRLSCAASGFTFINYAMGWYRQAPGKERELVAAISRRGGSTYYADSVKGRFTISRDNAKNTVYLQMNSLKPEDTAVYYCAARGYSYNYDYWGQGTQVTVSS,high polyreactivity
13,QVQLVESGGGLVQAGGSLRLSCAASGFTFIPYAMGWYRQAPGKERELVAAISRKGGRTYYADSVKGRFTISRDNAKNTVYLQMNSLKPEDTAVYYCAVSQYRGIYRKYDYWGQGTQVTVSS,high polyreactivity
14,QVQLVESGGGLVQAGGSLRLSCAASGFTFIQYAMGWYRQAPGKERELVAAISVSGGSTYYADSVKGRFTISRDNAKNTVYLQMNSLKPEDTAVYYCNTVTSGFLSYDYWGQGTQVTVSS,high polyreactivity
15,QVQLVESGGGLVQAGGSLRLSCAASGFTFIQYAMGWYRQAPGKERELVAAITRSGGRTYYADSVKGRFTISRDNAKNTVFLQMNSLKPEDTAVYYCNADRTRGYQRYDYWGQGTQETVSS,high polyreactivity
16,QVQLVESGGGLVQAGGSLRLSCAASGFTFISNAMGWYRQAPGKERELVAAISSSGGRTFYADSVKGRFTISRDNAKNTDDLQMNSLKPEDTAVYYCNADRSLLYSRKIEYDYWGQGTQVTVSS,low polyreactivity
17,QVQLVESGGGLVQAGGSLRLSCAASGFTFITNAMGWYRQAPGKERELVASISIGGSTNYADSVKGRFTISRDNAKNTVYLQMNSLKPEDTAVYYCAARVYRRLFLPGRYGRPLGYWGQGTQVTVTS,high polyreactivity
18,QVQLVESGGGLVQAGGSLRLSCAASGFTFIYYAMGWYRQAPGKERELVAAINRGGNTYYADSVKGRFTISRDNAKNTVYLQMNSLKPEDTAVYYCNARSYRRGHYYWGQGTQVTVSS,high polyreactivity
19,QVQLVESGGGLVQAGGSLRLSCAASGFTFKGYTMGWYRQAPGKERELVAGISRRGGSTYYADSVKGRFTISRDNAKNTVYLQMNSLKPEDTAVYYCAADSQLTKFYYWGQGTQVTVSS,high polyreactivity
20,QVQLVESGGGLVQAGGSLRLSCAASGFTFKKNAMGWYRQAPGTERELVAAISRSGGITYYADSVKGRFTISRDNAKNTVYLQMNSLKPEDTAVYYCATQTYRTPGYYYWGEGTQVTVSS,high polyreactivity
21,QVQLVESGGGLVQAGGSLRLSCAASGFTFKRYAMGWYRQAPGKERELVAVISSGGSTYYADSVKGRFTISRDNAKNCVYLQMNRLKPEDTAVYYCNAYIGGSSWHTALDYWGQGTQVTVSS,high polyreactivity
